Experimental data taken from US10131920B2, “Nucleic acid molecules” (MEDIMMUNE LIMITED, priority 2013, dated 2018).

Tested on: GFPY40 reporter (GFP containing an amber codon) in HEK293 cells stably expressing pylRS
Experiment: Amber suppression-dependent GFP expression (GFPY40 reporter), transient transfection, flow cytometry
Format: cell-based
Conditions: for GFP MFI, FIG. 8: 1 ug PCR product of each construct, lys azide nnAA; for capacity to support amber suppression relative to H1 WT tRNA (FIG. 4): all tRNA variants under control of the H1 promoter, 1 ug construct + 1 ug GFPY40, lys azide 2 mM, 18 hours
Method: To assess the function of the tRNA variants, an in vitro assay was established where cells are transiently transfected with a tRNA construct and a reporter construct encoding GFP containing an amber codon interrupting its reading frame (GFPY40). HEK293 cells stably expressing pylRS were transiently transfected with various tRNA constructs (1 ug) and the GFPY40 reporter (1 ug). In the absence of elements that support amber suppression, a truncated GFP protein is generated and the cell is not fluorescent. However, the introduction of a functional tRNA and the presence of a nnAA that supports amber suppression allows for the production of full length GFP resulting in fluorescent cells. The level of GFP expression reflects the efficiency of amber suppression and is quantified by flow cytometry. tRNA genes encoding wild type tRNApyl (WT tRNA), or containing mutations in the B-box (B tRNA—SEQ ID No 9), in both the A and B box (A2B tRNA—SEQ ID No 10), or in the A box (A1 tRNA-SEQ ID No 7; or A2 tRNA SEQ ID No 11), all under control of the H1 promoter were generated by site directed mutagenesis and assayed. The H1 promoter ensured that the variants were expressed and allowed us to examine the functional effects of the mutations introduced into the tRNA genes. In addition a sample transfected with GFPY40 alone was generated to establish background GFP levels. The transfected cells were grown in presence of the aminoacid analogue lys azide (2 mM) and incubated for 18 hours. GFP fluorescence was then assayed by flow cytometry and mean fluorescence intensity determined for each sample. Data were analysed with FCS Express and the mean fluorescence intensity of each sample determined using markers that constrain the data set to cells showing fluorescence above negative controls.
To begin to assess whether the tRNA mutations can support expression of the tRNA we assayed tRNA constructs encoding the wild type tRNA in the absence of the H1 promoter. Constructs encoding wild type tRNApyl (WT tRNA) or containing mutations in the B-box (B tRNA—SEQ ID No 9) or in both the A and B box (A2B; A2B tRNA—SEQ ID No 10) were assayed using our in vitro amber suppression assay described above. WT tRNA under control of the H1 promoter (H1-tRNA) was used as a positive control, and in addition one sample was transfected only with the GFPY40 reporter to illustrate background amber suppression in the absence of tRNA. The transfected cells were exposed to 2 mM lys-azide nnAA and cells incubated for three days. GFP expression was examined by flow cytometry and mean fluorescence intensity determined.
Two copies of the WT, B, or A2B tRNA were cloned in tandem to generate a single vector containing two copies of WT, B, or A2B tRNA. To assess the effect of increased gene doses by these constructs, cells expressing WTpylRS were transiently transfected with the tRNA constructs and the GFPY40 reporter construct and GFP expression assayed after two days.
The activity of each construct was assessed by transient transfection into cells stably expressing WT pylRS with the GFPY40 reporter as described above. For this experiment, 1 ug of a PCR product encoding each of the indicated constructs was used. In each case, cells were exposed to the lys azide nnAA for three days and GFP levels assayed by flow cytometry. Mean fluorescence intensities were determined for each sample and plotted (FIG. 8).

[1] = 2 mM lys-azide nnAA, three days

Molecule	GFP MFI, FIG. 8 (three days)	capacity to support amber suppression relative to H1 WT tRNA (FIG. 4)	further results
7SL tRNA A1: tRNA-A1 downstream of the 7SL promoter 5′ region (nucleic acid, Synthetic sequence 7SL tRNA-A1 construct, tRNA-A1 downstream of the 7SL promoter 5′ region) DNA: CCCAGTTGATGACGTCACCATACCACAGCTTCTAGTGCTATTCTGCGCCGGTATCCGACCACCAGGAAACCTGGTCATGTAGATCGAATGGACTCTAAATCCGTTCAGCCGGGTTAGATTCCCGGGGTTTCCGGACAAGTGCGGTTTTT	114,393	–	–
7SL A2B: tRNA-A2B downstream of the 7SL promoter 5′ region (nucleic acid, Synthetic sequence 7SL tRNA-A2B construct, tRNA-A2B downstream of the 7SL promoter 5′ region) DNA: CCCAGTTGATGACGTCACCATACCACAGCTTCTAGTGCTATTCTGCGCCGGTATCCGACCACCAGGAAACCTGGTCAAGTAGATCGAATGGACTCTAAATCCGTTCAGCCGGGTTCGATTCCCGGGGTTTCCGGACAAGTGCGGTTTTT	245,120	–	–
7SL AB: tRNA-AB downstream of the 7SL promoter 5′ region (nucleic acid, Synthetic sequence 7SL tRNA-AB construct, tRNA-AB downstream of the 7SL promoter 5′ region) DNA: CCCAGTTGATGACGTCACCATACCACAGCTTCTAGTGCTATTCTGCGCCGGTATCCGACCACCAGGAAACCTGGTCATGTAGATCGAATGGACTCTAAATCCGTTCAGCCGGGTTCGATTCCCGGGGTTTCCGGACAAGTGCGGTTTTT	210,380	–	–
A2B tRNA: tRNApyl Methanosarcina mazei with A10G, T14A, A52C mutations (nucleic acid, expressed or natural sequence, tRNApyl Methanosarcina mazei with A10G, T14A, A52C mutations) DNA: GGAAACCTGGTCAAGTAGATCGAATGGACTCTAAATCCGTTCAGCCGGGTTCGATTCCCGGGGTTTCCG	–	support amber suppression, albeit at a lower level than the WT tRNA	GFP mean fluorescence intensity (MFI), FIG. 5 [1]: 242,747.9; fold higher expression of GFP than the wt tRNA construct (FIG. 5) [1]: 2.5 fold; GFP MFI, single copy tRNA, FIG. 7 (cells expressing WTpylRS, after two days, single copy): 61,950; GFP MFI, tandem copies of tRNA, FIG. 7 (cells expressing WTpylRS, after two days, single vector containing two copies in tandem): 96,158
H1-A1 tRNA: tRNA-A1 (A10G) under control of the H1 promoter (nucleic acid, Synthetic sequence H1 tRNA-A1 construct, tRNA-A1 (A10G) under control of the H1 promoter) DNA: AATATTTGCATGTCGCTATGTGTTCTGGGAAATCACCATAAACGTGAAATCCCTATCAGTGATAGAGACTTATAAGTTCCCTATCAGTGATAGAGACACCAGGAAACCTGGTCATGTAGATCGAATGGACTCTAAATCCGTTCAGCCGGGTTAGATTCCCGGGGTTTCCGGACAAGTGCGGTTTTTTT	–	does not affect the activity of the tRNA	–
H1 A2 tRNA: tRNA-A2 (A10G, T14A) under control of the H1 promoter (nucleic acid, Synthetic sequence H1 tRNA-A2 construct, tRNA-A2 (A10G, T14A) under control of the H1 promoter) DNA: AATATTTGCATGTCGCTATGTGTTCTGGGAAATCACCATAAACGTGAAATCCCTATCAGTGATAGAGACTTATAAGTTCCCTATCAGTGATAGAGACACCAGGAAACCTGGTCAAGTAGATCGAATGGACTCTAAATCCGTTCAGCCGGGTTAGATTCCCGGGGTTTCCGGACAAGTGCGGTTTTTTT	–	does not affect the activity of the tRNA	–
Vault WT tRNA: WT tRNApyl downstream of the Vault promoter 5′ region (nucleic acid, Synthetic sequence Vault tRNA-WT construct, WT tRNApyl downstream of the Vault promoter 5′ region) DNA: TGGTCGCTGAGTCATGCTGAAGCACTCTCTTTTTGACTCACTCTTTGTGACGTAGGTCTTTCTCACCAGTCAATAAAATATAATCCGAAAGCAACCTCCCACCAGGAAACCTGATCATGTAGATCGAATGGACTCTAAATCCGTTCAGCCGGGTTAGATTCCCGGGGTTTCCGGACAAGTGCGGTTTTT	102,415	–	–
Vault B tRNA: tRNA-B downstream of the Vault promoter 5′ region (nucleic acid, Synthetic sequence Vault tRNA-B construct, tRNA-B downstream of the Vault promoter 5′ region) DNA: TGGTCGCTGAGTCATGCTGAAGCACTCTCTTTTTGACTCACTCTTTGTGACGTAGGTCTTTCTCACCAGTCAATAAAATATAATCCGAAAGCAACCTCCCACCAGGAAACCTGATCATGTAGATCGAATGGACTCTAAATCCGTTCAGCCGGGTTCGATTCCCGGGGTTTCCGGACAAGTGCGGTTTTT	170,838	–	GFP MFI, FIG. 9 (1 ug GFPY40 reporter and 1 ug tRNA expression plasmid): 168,298
Vault A2B tRNA: tRNA-A2B downstream of the Vault promoter 5′ region (nucleic acid, Synthetic sequence Vault tRNA-A2B construct, tRNA-A2B downstream of the Vault promoter 5′ region) DNA: TGGTCGCTGAGTCATGCTGAAGCACTCTCTTTTTGACTCACTCTTTGTGACGTAGGTCTTTCTCACCAGTCAATAAAATATAATCCGAAAGCAACCTCCCACCAGGAAACCTGGTCAAGTAGATCGAATGGACTCTAAATCCGTTCAGCCGGGTTCGATTCCCGGGGTTTCCGGACAAGTGCGGTTTTT	154,445	–	–
